Assay results taken from PMC2732195.

Molecular target: wild type presenilin 1 (PS1) (UniProt P49768)
Experiment: FRET or BRET

- Alexa 430 donor lifetime (FRET): 1230 ps
- Alexa 488 donor lifetime (FLIM), average per cell: 1890 ps
- Alexa 488 donor lifetime (FLIM), cell interior: 2090 ps
- Alexa 488 donor lifetime (FLIM), cell periphery: 1420 ps
- FRET strength normalized to WT APP (normalized to WT APP): 100
Substance: wild type human APP C99 (from UniProt P05067 672-770) (domain or fragment)
